Reference: patent US10287344B2, “Methods for reducing global chronic inflammation and the presence of melanoma” (Mayo Foundation for Medical Education and Research, priority 2008, dated 2019)

Tested on: PBMC from healthy donors
Experiment: VEGF mediated Th1/Th2 polarity: PBMC stimulated 3 days with CD3/CD28 expander beads, intracellular IFN-γ/IL-4 in CD4+ T-cells
Type: cell-based, human
Conditions: 10 μg/mL IL-12 added to culture containing 16 pg/mL of VEGF
Experimental: PBMC (A) isolated from healthy donors were stimulated with PMA and ionomycin in the presence of brefeldin-A, permeabolized, and intracellularly stained for human IFN-γ (FITC) and human IL-4 (PE). PBMC were exposed to increasing concentrations of VEGF ([…]) without/with IL-12. All cells were immunostained with PC5 anti-human CD4. Purified CD4+ T-cells (B) were negatively isolated using Miltenyi beads, cultured, and stained in the same fashion as PBMC (A).
To determine the effect of VEGF on Th1 and Th2 polarity, PBMC from healthy donors were stimulated for 3 days with CD3/CD28 expander beads (Invitrogen Oslo, Norway) with and without increasing doses of recombinant VEGF (1-16 pg/mL). Cells were also cultured with 10 μg/mL recombinant human IL-12 (R and D Systems, Minneapolis, Minn.) or 8 μg/mL of a monoclonal anti-human IL-12 (R and D Systems Minneapolis, Minn. clone #24910). […]
In addition, healthy donor PBMC were stimulated with CD3^+/CD28^+ expander micro-beads for 3 days with increasing concentrations (1 pg/mL-16 pg/mL) of recombinant VEGF and assessed intracellular cytokine production of IL-4 (Th2 cytokine) and IFN-γ (Th1 cytokine) in CD4^+ T-cells at the end of in vitro culture (FIG. 8a).

B1: IL-12: recombinant human IL-12 (R and D Systems) (protein, UniProt P29459 23-219; P29460 23-328, looked up)
Interleukin-12 subunit alpha: RNLPVATPDPGMFPCLHHSQNLLRAVSNMLQKARQTLEFYPCTSEEIDHEDITKDKTSTVEACLPLELTKNESCLNSRETSFITNGSCLASRKTSFMMALCLSSIYEDLKMYQVEFKTMNAKLLMDPKRQIFLDQNMLAVIDELMQALNFNSETVPQKSSLEEPDFYKTKIKLCILLHAFRIRAVTIDRVMSYLNAS
Interleukin-12 subunit beta: IWELKKDVYVVELDWYPDAPGEMVVLTCDTPEEDGITWTLDQSSEVLGSGKTLTIQVKEFGDAGQYTCHKGGEVLSHSLLLLHKKEDGIWSTDILKDQKEPKNKTFLRCEAKNYSGRFTCWWLTTISTDLTFSVKSSRGSSDPQGVTCGAATLSAERVRGDNKEYEYSVECQEDSACPAAEESLPIEVMVDAVHKLKYENYTSSFFIRDIIKPDPPKNLQLKPLKNSRQVEVSWEYPDTWSTPHSYFSLTFCVQVQGKSKREKKDRVFTDKTSATVICRKNASISVRAQDRYYSSSWSEWASVPCS
Which “shift in T-helper polarity in culture containing VEGF” value does the source give for B1 here?
Its value is “prevented the shift in T-helper polarity from Th1 to Th2”.
